Residue numbers refer to the chain shown, from its start.
T1: recombinant soluble human IL-6 receptor (SR344) (human, UniProt P08887 20-344)
T1 construct: In the 'membrane-type IL-6 receptor' Biacore assays the same SR344 was biotinylated and immobilized via streptavidin; also called soluble IL-6 receptor; membrane-type IL-6 receptor (as biotinylated SR344 immobilized on the sensor chip)
T1 sequence (looked up): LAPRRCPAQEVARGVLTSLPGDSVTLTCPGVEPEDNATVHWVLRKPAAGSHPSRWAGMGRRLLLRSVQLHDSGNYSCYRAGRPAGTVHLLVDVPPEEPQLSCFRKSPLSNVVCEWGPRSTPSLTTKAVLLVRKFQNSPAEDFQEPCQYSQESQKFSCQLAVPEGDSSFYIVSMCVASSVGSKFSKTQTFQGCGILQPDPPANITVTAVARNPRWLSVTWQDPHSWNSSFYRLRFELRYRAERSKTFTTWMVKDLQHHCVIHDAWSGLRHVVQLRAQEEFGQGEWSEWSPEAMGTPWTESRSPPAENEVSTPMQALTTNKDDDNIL

B1: Fv2-IgG1 (antibody, V domains shown)
VH: QVQLQESGPGLVKPSETLSLTCAVSGYSISHDHAWSWVRQPPGEGLEWIGHISYSGITNYNPHLQDRVTISRDTSKNQFSLKLSSVTAADTAAYYCARFLARITAHDHWGEGTLVTVSS
VL: DIQMTQSPSSLSASVGDSVTITCQASQDISSHLNWYQQKPGKAPELLIYYGSHLHSGVPSRFSGSGSGTDFTFTISSLEAEDAATYYCGQGNRLPYTFGQGTKVEIE
notes: also called VH1-IgG1/L82
B2: H54/L28-IgG1 (antibody, V domains shown)
VH: B1 VH with H31D, H33Q, H51Y, H63S, Q65K, D66G, F99S, I103T, H106M, H108Y
VL: B1 VL with H32Y, H53E, G89Q, R93S
notes: tested as IgG1
B3: Fv4-M58 (antibody)
heavy: QVQLQESGPGLVKPSETLSLTCAVSGHSISHDHAWSWVRQPPGEGLEWIGFISYSGITNYNPSLQGRVTISRDNSKNTLYLQMNSLRAEDTAVYYCARSLARTTAMDYWGEGTLVTVSSASTKGPSVFPLAPSSKSTSGGTAALGCLVKDYFPEPVTVSWNSGALTSGVHTFPAVLQSSGLYSLSSVVTVPSSNFGTQTYTCNVDHKPSNTKVDKTVERKSCVECPPCPAPPVAGPSVFLFPPKPKDTLMISRTPEVTCVVVDVSQEDPEVQFNWYVDGVEVHNAKTKPREEQFNSTFRVVSVLTVVHQDWLNGKEYKCKVSNKGLPAPIEKTISKTKGQPREPQVYTLPPSQEEMTKNQVSLTCLVKGFYPSDIAVEWESNGQPENNYKTTPPMLDSDGSFFLYSKLTVDKSRWQEGNVFSCSVMHEALHNHYTQKSLSLSP
light: DIQMTQSPSSLSASVGDSVTITCQASTDISSHLNWYQQKPGKAPELLIYYGSHLLSGVPSRFSGSGSGTDFTFTISSLEAEDAATYYCGQGNRLPYTFGQGTKVEIERTVAAPSVFIFPPSDEQLKSGTASVVCLLNNFYPREAKVQWKVDNALQSGNSQESVTEQDSKDSTYSLSSTLTLSKADYEKHKVYACEVTHQGLSSPVTKSFNRGEC
notes: also called VH3-M58/VL3-CK
B4: Fv3-M71 (antibody, human IgG2, kappa)
heavy: QVQLQESGPGLVKPSETLSLTCAVSGHSISHDHAWSWVRQPPGEGLEWIGFISYSGITNYNPTLQGRVTISRDNSKNTLYLQMNSLRAEDTAVYYCARSLARTTAMDYWGEGTLVTVSSASTKGPSVFPLAPCSRSTSESTAALGCLVKDYFPEPVTVSWNSGALTSGVHTFPAVLQSSGLYSLSSVVTVPSSNFGTQTYTCNVDHKPSNTKVDKTVERKCCVECPPCPAPPVAGPSVFLFPPKPKDTLMISRTPEVTCVVVDVSHEDPEVQFNWYVDGVEVHNAKTKPREEQFNSTFRVVSVLTVVHQDWLNGKEYKCKVSNKGLPAPIEKTISKTKGQPREPQVYTLPPSREEMTKNQVSLTCLVKGFYPSDIAVEWESNGQPENNYKTTPPMLDSDGSFFLYSKLTVDKSRWQQGNVFSCSVMHEALHAHYTQKSLSLSPGK
light: B3 light with T27R
notes: also called VH4-M71/VL1-CK
B5: Fv1-M71 (antibody, human IgG2, kappa)
heavy: QVQLQESGPGLVKPSETLSLTCAVSGYSISHDHAWSWVRQPPGEGLEWIGHISYSGITNYNPHLQDRVTISRDTSKNQFSLKLSSVTAADTAVYYCARFLARITAHDHWGEGTLVTVSSASTKGPSVFPLAPCSRSTSESTAALGCLVKDYFPEPVTVSWNSGALTSGVHTFPAVLQSSGLYSLSSVVTVPSSNFGTQTYTCNVDHKPSNTKVDKTVERKCCVECPPCPAPPVAGPSVFLFPPKPKDTLMISRTPEVTCVVVDVSHEDPEVQFNWYVDGVEVHNAKTKPREEQFNSTFRVVSVLTVVHQDWLNGKEYKCKVSNKGLPAPIEKTISKTKGQPREPQVYTLPPSREEMTKNQVSLTCLVKGFYPSDIAVEWESNGQPENNYKTTPPMLDSDGSFFLYSKLTVDKSRWQQGNVFSCSVMHEALHAHYTQKSLSLSPGK
light: B3 light with T27R, L55E
notes: also called VH2-M71/VL2-CK
B6: Fv4-IgG1 (antibody)
heavy: not shown
light: B3 light
notes: also called VH3-IgG1/VL3-CK
B7: Fv1-M73 (antibody)
heavy: QVQLQESGPGLVKPSETLSLTCAVSGYSISHDHAWSWVRQPPGEGLEWIGHISYSGITNYNPHLQDRVTISRDTSKNQFSLKLSSVTAADTAVYYCARFLARITAHDHWGEGTLVTVSSASTKGPSVFPLAPSSKSTSGGTAALGCLVKDYFPEPVTVSWNSGALTSGVHTFPAVLQSSGLYSLSSVVTVPSSNFGTQTYTCNVDHKPSNTKVDKTVERKSCVECPPCPAPPVAGPSVFLFPPKPKDTLMISRTPEVTCVVVDVSQEDPEVQFNWYVDGVEVHNAKTKPREEQFNSTFRVVSVLTVVHQDWLNGKEYKCKVSNKGLPAPIEKTISKTKGQPREPQVYTLPPSQEEMTKNQVSLTCLVKGFYPSDIAVEWESNGQPENNYKTTPPMLDSDGSFFLYSKLTVDKSRWQEGNVFSCSVMHEALHAHYTQKSLSLSP
light: B3 light with T27R, L55E
notes: also called VH2-M73/VL2-CK
B8: Fv4-IgG2 (antibody)
heavy: B3 heavy with S133C, K135R, G139E, G140S, S221C, Q266H, Q353R, E417Q
light: B3 light
notes: also called Fv4-IgG2ΔGK; VH3-IgG2ΔGK/VL3-CK
B9: Fv3-M73 (antibody)
heavy: B3 heavy with S63T, N432A
light: B3 light with T27R
notes: also called VH4-M73/VL1-CK
B10: Fv4-M73 (antibody)
heavy: B3 heavy with N432A
light: B3 light
notes: also called VH3-M73/VL3-CK

Tests used:
[1] = target: T1, recombinant soluble human IL-6 receptor …; assay: Biacore T100, biotinylated SR344 immobilized via streptavidin (membrane-type IL-6 receptor model), antibody as analyte; ratio of kd at pH 5.8 to pH 7.4
Method: (§1) Binding to the membrane-type IL-6 receptor was evaluated by evaluating binding to the IL-6 receptor immobilized on a sensor chip. SR344 was biotinylated in accordance with a method known among persons with ordinary skill in the art, and the biotinylated SR344 was immobilized on the sensor chip via streptavidin using the affinity between streptavidin and biotin. All the measurements were carried out at 37° C. The mobile phase buffer was 10 mM MES (pH 5.8), 150 mM NaCl and 0.05% Tween 20.
(§2) The pH-dependently-binding clones were injected under the condition of pH 7.4 to allow them to bind to SR344, and then, the pH-dependent dissociation of each clone at the pH of the mobile phase, pH 5.8, was observed. The results are shown in FIG. 21 (results for Fv1-M71, Fv1-M73, Fv3-M71, and Fv3-M73 are shown in FIG. 21, while results for other clones are shown in FIGS. 17 and 19). Analyses were carried out in the same manner as in Example 10 and the pH dependencies of the dissociation rate constants of all of the eleven types of clones are shown in Table 12.

[2] = target: T1, recombinant soluble human IL-6 receptor …; assay: as above; remark: listed apart in the source
Method: as §1, §2

[3] = target: T1, recombinant soluble human IL-6 receptor …; assay: Biacore T100, antibody captured on protein A/G, SR344 as analyte, 37C; ratio of KD at pH 5.8 to pH 7.4
Method: (§3) Kinetic analysis of antigen-antibody reactions at pH 7.4 and pH 5.8 was carried out using Biacore T100 (GE Healthcare) for the four types of antibodies prepared: WT-IgG1, H54/L28-IgG1, H170/L82-IgG1, and Fv4-IgG1(buffer: 10 mM MES (pH 7.4 or pH 5.8), 150 mM NaCl, 0.05% Surfactant-P20). The antibodies were bound to a sensor chip on which recomb-protein A/G (Pierce) was immobilized by amine coupling, and SR344 adjusted to an appropriate concentration was injected therein as an analyte. The association with and dissociation from SR344 of each type of antibody were observed on a real-time basis. All the measurements were carried out at 37° C. Association rate constants kₐ (1/Ms) and dissociation rate constants kd (1/s) were calculated using Biacore T100 Evaluation Software (GE Healthcare), and dissociation constants KD (M) were calculated based on those values (Table 17).

[4] = target: T1, recombinant soluble human IL-6 receptor …; assay: Biacore T100, antibody captured on protein A/G, SR344 as analyte, 37C; ratio of kd at pH 5.8 to pH 7.4
Method: as §3

[5] = target: T1, recombinant soluble human IL-6 receptor …; assay: Biacore T100, biotinylated SR344 immobilized via streptavidin (membrane-type IL-6 receptor model), antibody as analyte; ratio of kd at pH 5.8 to pH 7.4; remark: listed apart in the source
Method: as §1, §2

Binder | kd(pH 5.8)/kd(pH 7.4) [1] | kd(pH 5.8)/kd(pH 7.4) [2] | KD(pH5.8)/KD(pH7.4) [3] | kd(pH 5.8)/kd(pH 7.4) [4] | kd(pH 5.8)/kd(pH 7.4) [5]
B1 | 7.18 | 7.18 | – | – | –
B2 | – | – | 0.7 | 2 | –
B3 | – | 17.6 | – | – | 17.6
B4 | – | 10.7 | – | – | –
B5 | – | 11.3 | – | – | –
B6 | 5.56 | 5.56 | 27.3 | 38.8 | 5.56
B7 | – | 8.8 | – | – | –
B8 | – | 17 | – | – | 17
B9 | – | 10.9 | – | – | –
B10 | – | 10.1 | – | – | 10.1
